Experimental data from patent US20040002442A1 (Bayer, published 2004).
Ends that are not written are not given here. * marks the point of attachment. Palmitoyl = CCCCCCCCCCCCCCCC(=O)*

Legend:
[1] = molecular target: T1, GLP-1 receptor present in the plasma membranes isolated from RINm5F cells (UniProt P32301 22-463, limits assumed); experiment: 125I-GLP-1 displacement, RINm5F plasma membranes
T1 construct: whole, on cells
T1 sequence (looked up): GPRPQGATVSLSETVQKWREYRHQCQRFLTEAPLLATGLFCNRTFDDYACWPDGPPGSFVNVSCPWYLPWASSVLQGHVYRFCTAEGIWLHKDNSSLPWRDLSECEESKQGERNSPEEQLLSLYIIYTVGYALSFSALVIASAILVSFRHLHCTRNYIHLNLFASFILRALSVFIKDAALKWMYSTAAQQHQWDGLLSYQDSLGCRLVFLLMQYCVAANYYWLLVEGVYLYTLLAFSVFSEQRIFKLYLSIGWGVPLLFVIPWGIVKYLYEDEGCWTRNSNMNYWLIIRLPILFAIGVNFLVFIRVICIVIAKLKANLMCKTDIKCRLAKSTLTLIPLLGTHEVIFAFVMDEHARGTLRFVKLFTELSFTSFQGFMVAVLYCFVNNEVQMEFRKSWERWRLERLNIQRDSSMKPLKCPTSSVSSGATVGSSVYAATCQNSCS
Description: Competitive binding of some polypeptides of the invention to RINm5F cell plasma membranes was measured as follows. Ninety-six-well GF/C filtration plates (Millipore, Bedford, Ma.) were blocked with 0.3% PEI for at least one hour and washed twice with binding buffer consisting of 20 mM Tris, 2 mM EDTA, pH 7.5, 1 mg/ml BSA, and 1 mg/ml bacitracin. […] The plates were dried, scintillant was added to each well, and cpm per well determined using a Wallac Microbeta counter.

[2] = molecular target: T2, glucagon receptor present in the plasma membranes isolated from rat liver (rat, UniProt P30082 27-485); experiment: cell-based or functional assay
[3] = molecular target: T1, GLP-1 receptor present in the plasma …; experiment: cell-based or functional assay
[4] = molecular target: T2, glucagon receptor present in the plasma …; experiment: 125I-glucagon displacement, rat liver plasma membranes
Description: Competitive binding of some polypeptides of the invention to rat liver plasma membranes was measured as follows. Ninety-six-well GF/C filtration plates (Millipore, Bedford, Ma.) were blocked with 0.1% PEI for at least one hour and washed twice with binding buffer consisting of 20 mM Tris, 2 mM EDTA, pH 7.5, 1 mg/ml BSA, and 1 mg/ml bacitracin. […] The plates were dried, scintillant was added to each well, and cpm per well determined using a Wallac Microbeta counter.

T2 sequence (P30082 27-485): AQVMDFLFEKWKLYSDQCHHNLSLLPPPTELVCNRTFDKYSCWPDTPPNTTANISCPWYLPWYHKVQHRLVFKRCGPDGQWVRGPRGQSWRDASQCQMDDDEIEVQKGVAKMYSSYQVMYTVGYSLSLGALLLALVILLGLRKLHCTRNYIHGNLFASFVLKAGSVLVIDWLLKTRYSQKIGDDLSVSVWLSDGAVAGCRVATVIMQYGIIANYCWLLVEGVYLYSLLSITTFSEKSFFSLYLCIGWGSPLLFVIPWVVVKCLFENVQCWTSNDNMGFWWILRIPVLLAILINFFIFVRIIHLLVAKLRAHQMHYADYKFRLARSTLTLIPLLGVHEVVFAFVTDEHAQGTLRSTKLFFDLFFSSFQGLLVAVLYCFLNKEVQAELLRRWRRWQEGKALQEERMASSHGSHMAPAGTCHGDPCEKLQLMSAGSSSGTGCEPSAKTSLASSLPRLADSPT

B1: G87 (peptide)
peptide: HSQGTFTSDYAKYLDARRAK(Palmitoyl)EFIAWLVKGR-NH2
modifications: N-terminus assumed
SMILES: CCCCCCCCCCCCCCCC(=O)NCCCC[C@H](NC(=O)[C@H](C)NC(=O)[C@H](CCCNC(=N)N)NC(=O)[C@H](CCCNC(=N)N)NC(=O)[C@H](C)NC(=O)[C@H](CC(=O)O)NC(=O)[C@H](CC(C)C)NC(=O)[C@H](Cc1ccc(O)cc1)NC(=O)[C@H](CCCCN)NC(=O)[C@H](C)NC(=O)[C@H](Cc1ccc(O)cc1)NC(=O)[C@H](CC(=O)O)NC(=O)[C@H](CO)NC(=O)[C@@H](NC(=O)[C@H](Cc1ccccc1)NC(=O)[C@@H](NC(=O)CNC(=O)[C@H](CCC(N)=O)NC(=O)[C@H](CO)NC(=O)[C@@H](N)Cc1c[nH]cn1)[C@@H](C)O)[C@@H](C)O)C(=O)N[C@@H](CCC(=O)O)C(=O)N[C@@H](Cc1ccccc1)C(=O)N[C@H](C(=O)N[C@@H](C)C(=O)N[C@@H](Cc1c[nH]c2ccccc12)C(=O)N[C@@H](CC(C)C)C(=O)N[C@H](C(=O)N[C@@H](CCCCN)C(=O)NCC(=O)N[C@@H](CCCNC(=N)N)C(N)=O)C(C)C)[C@@H](C)CC
[1]
  IC50: 98.6 nM
[2]
  % Inhib glucagon stimulated cAMP increase (10 uM peptide, rat hepatocytes): 59%
[3]
  % GLP1 max, cAMP SPA in RINm5F cells: 100%
  Relative Potency (%), cAMP SPA in RINm5F cells: 6.1%
[4]
  IC50: 620 nM
